experiment: soluble on expression in E. coli; label from the status in PepcDB or PDB records

Sequence | soluble on expression in E. coli
ATDMWLERAADVSWEAGAAITGTSERLDVQLDDDGDFHLLNDPGVGGGGSGGGGGGVFWDTPSPKVYPKGDTTPGVYRIMARGILGRYQAGVGVMHEGVFHTLWHTTRGAAIMSGEGRLTPYWGNVKEDRVTYGGPWKLDQKWNGVDDVQMIVVEPGKPAINVQTKPGIFKTAHGEIGAVSLDYPIGTSGSPIVNSNGEIIGLYGNGVILGNGAYVSAIVQGERVEEPVPEAYNPEMLKKRQLTVLDLHPGAGKTRRILPQIIKDAIQKRLRTAVLAPTRVVAAEMAEALRGLPVRYLTPAVQREHSGNEIVDVMCHATLTHRLMSPLRVPNYNLFVMDEAHFTDPASIAARGYIATRVEAGEAAAIFMTATPPGTSDPFPDTNSPVHDVSSEIPDRAWSSGFEWITDYAGKTVWFVASVKMSNEIAQCLQRAGKRVIQLNRKSYDTEYPKCKNGDWDFVITTDISEMGANFGASRVIDCRKSVKPTILDEGEGRVILSVPSAITSASAAQRRGRVGRNPSQIGDEYHYGGGTSEDDTMLAHWTEAKILLDNIHLPNGLVAQLYGPERDKTYTMDGEYRLRGEERKTFLELIKTADLPVWLAYKVASNGIQYNDRKWCFDGPRSNIILEDNNEVEIITRIGERKVLKPRWLDARVYSDHQSLKWFKDFAAGKR | soluble
KSPVREPVDNLSPEERDARTVFCMQLAARIRPRDLEDFFSAVGKVRDVRIISDRNSRRSKGIAYVEFCEIQSVPLAIGLTGQRLLGVPIIVQASQAEKNRL | soluble
MNPNPNVKYPIEGNQNVHFIKNTITKANILVGDYSYYDAKDGETFEDRVLHHYEFLGDRLIIGKFCCIASGVTFIMNGANHRMDGFSAYPFNIFGNGWEKYTPNLSDLPYKGDTVIGNDVWIGMDATIMPGIKIGDGAIIAAKSVVTRDVAPYTIVGGNPANKIRERFSNAIIEELLQIQWWHFDIEKITENIGAIVQGNIEPLRKLKRE | not soluble
FFFSGGVPLDASLFEHKKLDPTQVRQVLQLVLWKLESLRQWEKERITGCIQAVAEHLQLKLRDVMPLMFPAITGHASSVSVLDAMEILGADLSRYRLRQALELLGGASKKETKEWEKIRDAIPG | not soluble
MPQNEHIELHRKRHGRRLDHEERQRKKLARAAHDRSQMAKTLRGHKAKLYHKKRYSEKVEMRKLLKQHEEKDQKNTVEQPDKGAVPAYLLDRQQQTSGTVLSNMIKQKRKQKAGKFNVPIPQVRAVSDAEAFKVVKTGKTNRKGWKRMVTKVTFVGESFTRKPAKFERFIRPMGLRFKKAHVTHPELQTTFHLPIVGVKKNPSSQMYTSLGVITKGTILEVNVSELGMVTQGGKVVWGKFAQVTNNPENDGCINAVLLI | not soluble
GSEVAIKMVVVGNGAVGKSSMIQRYCKGIFTKDYKKTIGVDFLERQIQVNDEDVRLMLWDTAGQEEFDAITKAYYRGAQACVLVFSTTDRESFEAISSWREKVVAEVGDIPTALVQNKIDLLDDSCIKNEEAEGLAKRLKLRFYRTSVKEDLNVSEVFKYLAEKHLQK | soluble
MSLNSESLGLLQEFLKTHKYKEFRDQAKNLRAPFILQAIVSTPTTVKYYTQGRLIKCCETDSTGNITTSYTYNDKGQLTTTLSVTEKNGQPINEVQTSRLYDPQGHCIFEVKTNPKTKTDFYRRARRIGIDGSIESDSLKYMDGRYTVSSYNKQGLLTETKEYNKNGEMEGYTVNKYDDKGRMTESQHQNMLFVNSPNQILSQKELYEYDKYGYLTRIVYQRIFGNSQKTSGCLTCLYDEYGNRIDGDSYYEYDNTGQWICRTSYDNPQQVERIQYIYKEGHHHHHH | not soluble
MSLSDAVNKHPKSPNPQLCAVTLLGNLVATPDIRYRANPATAVTEIVLATSSKWLDKITNKYKEWTSYHHVKVEGELVELALLNANKGDIILLHGYLSNIKPKSTDKSTNHLGIVHANFVQKFEKGYTQAINQIHCSAQLTSKPKLMLTEQNKNITQANIVINQHIYNTDKQAWQTISVERAIHVWGKQAQYLAEHGDIGDELMLEGKLSYTSGVSKDQFIEVKNVHLFKGTLEHHHHHH | soluble
KFWRRWAGQSQYKGRWREMVTRSALALKLLTSRKHGGIVAAATFGLPETEAGERNWDYRYTWIRDASFTVYAFMRLGYTDEANAFMGWVRGRLDDCCEQTEKLGILYALDGHAELPEEHLDHLTGYGGAQPVRIGNEAYKQVQLDIYGELMDAVYLANKYGDAISHDGWQHVVRQVDYVCEHWNDRDVGIWEMRGGDQHFLHSRLMCWVALDRALRLAFKRSLSGPFERWNKVREDIQNDIWDNFWNEELGHFVQYKGSRNLDASMLLMPLVRFVGANDPKWLATLDAIEAALVRDGMVFRYRNDDDHDDGLAGEEGAFVACSFWYVECLARAGRVEQAHLEFEQLLRYANPLGLYAEEFDGHARHLGNTPQALSHLALISAASFLDRKLSGEQALWQP | not soluble
MDSWYPSKELIEACLKKGFHVIAMLKTNRILYPKGIAVQAKQFARYLEPRDTRLVTVGNERYRVYRYEGALNGLDDAVVLLTWKADQPMTPEHLHGVLSTDRELSDEDILRYYAQRWSIECFFRQVKDQLKLDGYRVRHIRAVKRYWVTVLLACVYSIAESQQDISAGLNLLRTRKGHSLIEFIYDAAKQDIPIDVVKKQLHVA | not soluble
MRNQELARIFEEIGLMSEFLGDNPFRVRAYHQAARTLYDLDTPIEEIAEKGKEALMELPGVGPDLAEKILEFLRTGKVRKHEELSRKVPRGVLEVMEVPGVGPKTARLLYEGLGIDSLEKLKAALDRGDLTRLKGFGPKRAERIREGLALAQAAGKRRPLGAVLSLARSLLEAIRALPGVERAELCGSARRYKDTVGDLDFLVASREGERAVEGFVRLPQVKEVYAKGKERATVFLKNGLQVDLRVVPPESYGAGLQYLTGSKAHSIRLRALAQEKGLKLSEYGVFRGEKRIAGETEEEVYAALGLPWIPPPLREDQGEVEAALEGRLPKLLELPQVKGDLQVHSTYSDGQNTLEELWEAAKTMGYRYLAVTDHSPAVRVAGGPSPEEALKRVGEIRRFNETHGPPYLLAGAEVDIHPDGTLDYPDWVLRELDLVLVSVHSRFNLPKADQTKRLLKALENPFVHVLAHPTARLLGRRAPIEADWEAVFQKAKEKGVAVEIDGYYDRMDLPDDLARMAYGMGLWISLSTDAHQTDHLRFMELAVGTAQRAWIGPERVLNTLDYEDLLSWLKARRGV | soluble
MNNFILLEEQLIKKSQQKRRTSPSNFKVRFFVLTKASLAYFEDRHGKKRTLKGSIELSRIKCVEIVKSDISIPCHYKYPFQVVHDNYLLYVFAPDRESRQRWVLALKEETRNNNSLVPKYHPNFWMDGKWRCCSQLEKLATGCAQYDPTKNASKKPLPPTPEDNRRPLWEPEETVVIALYDYQTNDPQELALRRNEEYCLLDSSEIHWWRVQDRNGHEGYVPSSYLVEKSPNNLETYEWYNKSISRDKAEKLLLDTGKEGAFMVRDSRTAGTYTVSVFTKAVVSENNPCIKHYHIKETNDNPKRYYVAEKYVFDSIPLLINYHQHNGGGLVTRLRYPVCFGRQKAPVTAGLRYGKWVIDPSELTFVQEIGSGQFGLVHLGYWLNKDKVAIKTIREGAMSEEDFIEEAEVMMKLSHPKLVQLYGVCLEQAPICLVFEFMEHGCLSDYLRTQRGLFAAETLLGMCLDVCEGMAYLEEACVIHRDLAARNCLVGENQVIKVSDFGMTRFVLDDQYTSSTGTKFPVKWASPEVFSFSRYSSKSDVWSFGVLMWEVFSEGKIPYENRSNSEVVEDISTGFRLYKPRLASTHVYQIMNHCWKERPEDRPAFSRLLRQLAEIAESGL | soluble
NSVLFPCKYASSGCEITLPHTEKAEHEELCEFRPYSCPCPGASCKWQGSLDAVMPHLMHQHKSITTLQGEDIVFLATDINLPGAVDWVMMQSCFGFHFMLVLEKQEKYDGHQQFFAIVQLIGTRKQAENFAYRLELNGHRRRLTWEATPRSIHEGIATAIMNSDCLVFDTSIAQLFAENGNLGINVTISMC | soluble
MSLDNESLLAILNNWSATNYAKGNYILREISSKFLAKISIDSNDYLLDAGCGDGSFTQMLANLVPDGYVLGLDRSKTMIDYANKHCRSINVRFDIGDIQEPIIYGPFDNILSFWCLHWTDLEKSLSNLYHVLKPGGKICAIFSSGKQSTLFEVLNSLQFQNLYPDVAKNVVQSKMMRENYSVQCRRALDNLPFKSISFVVEHCQVELPDLGLFENFIHGAPLFKDLPGKMYQDIVNGMVQFFDEYCKKKYGGKWVYETTPYFLTITREGHHHHHH | soluble
MEASKDISRLIEIMEALRQPETGCPWDVVQTFETIKPYTIEEAYEVADAIERKDMDDLCDELGDLLLQVVFHARIAEERGEFTFGDVVHAVTSKMIRRHPHVFDVSDADTPDSVKLQWDQIKAEEKRERAERRARRGITEDFKAGFLGGVQRSQPALTEALKLQEQAARVGFDWSDPAPILDKIEEEIAELREALAEGKPEKVSDELGDLIFALVNIGRHVKADPEDALRGTNTKFRRRFNHIETSLSDNGETLKEASLERMEDLWQAAKRIERSLDTVSS | not soluble
MDFETNEDINGVRFTWNVFPSTRSDANSNVVPVGCLYTPLKEYDELNVAPYNPVVCSGPHCKSILNPYCVIDPRNSSWSCPICNSRNHLPPQYTNLSQENMPLELQSTTIEYITNKPVTVPPIFFFVVDLTSETENLDSLKESIITSLSLLPPNALIGLITYGNVVQLHDLSSETIDRCNVFRGDREYQLEALTEMLTGQKPTGPGGAASHLPNAMNKVTPFSLNRFFLPLEQVEFKLNQLLENLSPDQWSVPAGHRPLRATGSALNIASLLLQGCYKNIPARIILFASGPGTVAPGLIVNSELKDPLRSHHDIDSDHAQHYKKACKFYNQIAQRVAANGHTVDIFAGCYDQIGMSEMKQLTDSTGGVLLLTDAFSTAIFKQSYLRLFAKDEEGYLKMAFNGNMAVKTSKDLKVQGLIGHASAVKKTDANNISESEIGIGATSTWKMASLSPYHSYAIFFEIANTAANSNPMMSAPGSADRPHLAYTQFITTYQHSSGTNRIRVTTVANQLLPFGTPAIAASFDQEAAAVLMARIAVHKAETDDGADVIRWLDRTLIKLCQKYADYNKDDPQSFRLAPNFSLYPQFTYYLRRSQFLSVFNNSPDETAFYRHIFTREDTTNSLIMIQPTLTSFSMEDDPQPVLLDSISVKPNTILLLDTFFFILIYHGEQIAQWRKAGYQDDPQYADFKALLEEPKLEAAELLVDRFPLPRFIDTEAGGSQARFLLSKLNPSDNYQDMARGGSTIVLTDDVSLQNFMTHLQQVAVSGQA | soluble
MLNLFRNRKRNGAGPTIKKAQKMPELDDFLSNQDYEGAISLLNHKLKAGNLDREEEDSLQLWLAHCYYRLRNYEEAANVYTFLMNKDDAPAELGVYLACCKFYLKQYIEAKSIAEKCPKTPLCIRLMMNVSLRLNDEKRILTFHSSLGDTLEDRLSLAGVNYSRMHYQDAIEVYTSVLQTSPNLIGLNVNMALCYAKMDYPHVAYNLIKNYLRNFPNSPFAKNLLLSVLYRTITSKTTVDEKSELARNIDQEGLTMVSDMEALLKQKLYPEIEYICKHNLVLFKNCETALQVLPSLMKHIPEARVNLILYHLNKNNVKDAISLCKDFDPVTPYEFLVKALTFLRHGQETNSREHLKIAENFFQMVGESGLVQDTIAGRQSSAAYLFLSFKFDDVITYLKSIEAYFTNNDDFLLNLAQAYLMYKNYVAAEKLFIRVSGPERDKILYKSMLARCYVRNKKPQSAWDMMLKTNNPSDRMSLLKVIAQDCYIANEFYYASKAFHEIEISDPTTENWSGKRGACAGLFRQLANHKTDPILISQMREVVHLVAMKPHSNCEFLLKVVRNWAETHNVNIIN | not soluble
MSETPLLFQTRDYRGATIEDLNIPLAVSINPTTSIYEAIGIAFENEFTYLPVIHERTKRLLGVINIEELKSNGDKLKRSILAPIVKSYMIWFNQSAKRKYEQENKEVLSSNRTAPKTTILKPRGKRYEVLTPMTPLEKLAEFFNSGNYFAIVTNGHGDFVYGVVTPQDLMKYEQSRPKL | soluble
